The values below come from the supplement of paper PMC9170038.

Data set [1] deals with MS2 coat protein. As to the kind of experiment: apparent KD of MS2 coat protein, switch ON state; designed switch direction (-1 OFF switch, 1 ON switch): -1; higher = weaker reporter binding. The settings on record: FMN input: 0 or 200 uM; Eterna round: R93 (includes R88 designs). The procedure, abridged:
(§1)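 Normalised binding curves from single clusters were fitted, and the median fit for each design is given as apparent KD. The clusters held designed RNA switches transcribed on-chip from Illumina sequencing clusters. These were titrated with SNAP-549-labelled MS2 coat protein (twofold steps from 0.7 or 1.5 nM to 3 µM, 0.8–1.5 h to 10–20 min per step) in 100 mM Tris-HCl pH 7.5, 80 mM KCl, 4 mM MgCl2, without or with constant ligand.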

In data set [2] the test system is MS2 coat protein. As to the kind of experiment: apparent KD of MS2 coat protein, switch OFF state (with FMN for OFF switches, without FMN for ON switches); designed switch direction (-1 OFF switch, 1 ON switch): -1; higher = weaker reporter binding. The settings on record: FMN input: 0 or 200 uM; Eterna round: R93 (includes R88 designs). The procedure, abridged:
as §1

For the sequence “AAAACACAUGAGGAUCACCCAUGUGAGGAUAUGCUAUGGAAAAUAAAAAUAAAACAUAGCAGAAGGCACAAAGG [Denovo 18]”, the “apparent KD of MS2 coat protein” value stood at 32.9 nM in data set [1] and 244 nM in data set [2].
For “AAGACUACAGGAUAUACAUGAGGAUCACCCAUGUAACUGACGGGUAGAUGACGGAGAAGUAGAAGGGUAGUCAA [Ruby 37]”, in that order: 67.2 nM and 40.6 nM.
With “UUUAAGUGAGGAUAUACGAAUAGUAAGUAAGUAUAACAGACGUAGAAGGCACAUGAGGAUCACCCAUGUAAAUA [JR_Exc004_Sub305]”, the “apparent KD of MS2 coat protein” value in data set [1] was determined as 24.4 nM; in data set [2], 18.6 nM.
On to “AAAGGACAUGAGGAUCACCCAUGUGAGGAUAUGCGAAAAAAAAAAAUAAAAAAAAAAAGUAGAAGGCACACCAA [Mat - Exclusion 1 - Eli mod - D57]”, for which the “apparent KD of MS2 coat protein” value turned out to be 99.4 nM in data set [1] and 128 nM in data set [2].
In the same order, the values of “AAGAAGGGAGGAUAUACUAAAGAAAUGAAAAGAAAUAAAGAACAUGAGGAUCACCCAUGUAGAAGGCCCAAGAA [Nehesy]” are 29.7 nM and 24.8 nM.
For “AUAAAACAUGAGGAUCACCCAUGUGAGGAUAUGCGAAAAAAAAAAAGAAAAAAAAAAAGCAGAAGGCACAAUAA [Amethyst 43]”, in that order: 32.8 nM and 34.9 nM.
In the same order, the values of “AAGAAGCAAGGAUAUACAUGAGGAUCACCCAUGUAAAAGAAAGAAGGGAAAGAGAAAAGUAGAAGGUGCAAGAA [Shepsesre Tefnakhte]” are 25.7 nM and 30.1 nM.
As to “AACGAACAUGAGGAUCACCCAUGUCAGGAUAUGCAAAGAACGAUCGAACGAACGAUAAGCAGAAGGGACAGAGA [Amethyst 97]”, the “apparent KD of MS2 coat protein” value in data set [1] turned out to be 27.7 nM; in data set [2], 40.4 nM.
Take “CUCUUGUCAGGAUAUGAAAGAAAAGAAGAGAAAGAAAAGAAUCAGAAGGGACAUGAGGAUCACCCAUGUAAGAA [EteRNA is fun!]”: the “apparent KD of MS2 coat protein” value in data set [1] came to 43.6 nM; in data set [2] it was 77.9 nM.
In the same order, the values of “GGGAUGUCAGGAUAUGUGUAAAGAAUAAAACAAAUAACAACACAGAAGGGACAUGAGGAUCACCCAUGUUACCC [May 39]” are 17 nM and 15.4 nM.
In the same order, the values of “AAAAAACAUGAGGAUCACCCAUGUAAGGAUAUCGGAAAAGGAAAAAAAAAAAAUAAGACGAGAAGGUACACCAA [Mat - Exclusion 1 - Eli mod - D79]” are 23.3 nM and 31.2 nM.
For “AAGAGUACAGGAUAUAUAUGAAAAGAGUCGAAAGACUCAAAACAUGAGGAUCACCCAUGUAGAAGGGUACUCAA [Hyphema Seclusion Mod 62% 1]”, in that order: 36.8 nM and 22.9 nM.
With “AUAGUACAUGAGGAUCACCCAUGUCAGGAUAUCGGAUAUGACAUGAAAAACAUGUUAACGAGAAGGGACUAUAA [EX1 Malc#19]”, the figures for the “apparent KD of MS2 coat protein” value in data set [1] and in data set [2] were 26.2 nM and 36.6 nM, respectively.
For “AAAACUCGAGGAUAUGCAAAAUGAUUGCGAAAGCAAUCAAAACAUGAGGAUCACCCAUGUAGAAGGCGAGAAAA [Mat - Mod of Eli]”, in that order: 23.5 nM and 13 nM.
In the same order, the values of “AGUUGGCGAGGAUAUACAUGAGGAUCACCCAUGUGAUAGAAAAAAGUGAGAAAGAAAAGUAGAAGGCGCUGACA [Mat - Exclusion 3 - Lego mod - D92]” are 69.9 nM and 254 nM.
In the same order, the values of “AGGAAACAUGAGGAUCACCCAUGUAAGGAUAUGAACGAAAUAAAAUAAAAAUAAAAGUUCAGAAGGUACGAAAA [Mat - Exclusion 1 - Eli mod - D9]” are 22.1 nM and 40.3 nM.
For “AAAACUGGAGGAUAUACAUGAGGAUCACCCAUGUGUGGAUGAGCUGUGUCGGCGUCAAGUAGAAGGCCACAAAA [Gilly Gone Silly 36 - Jieux - Exclusion 3]”, the “apparent KD of MS2 coat protein” value in data set [1] was determined as 36.7 nM; in data set [2], 43.1 nM.
As for “AGCUAGUGAGGAUAUACGAACAAGUAAAAGGACUGUAAGGGACAUGAGGAUCACCCAUGUAGAAGGCACUAGCA [Diamond 60]”, the “apparent KD of MS2 coat protein” value in data set [1] worked out at 29.6 nM; in data set [2], 92.7 nM.
As to “AAAAAACAUGAGGAUCACCCAUGUAAGGAUAUGCUAGGAAAAAGAAAAAUAAAAACUAGCAGAAGGUAUAUGAA [JL wbt mod 12]”, the “apparent KD of MS2 coat protein” value in data set [1] turned out to be 24.5 nM; in data set [2] it was 27.4 nM.
Consider “AAUAACAGAGGAUAUACUAAAGAAAUGAAAAGAAAUAAAGAACAUGAGGAUCACCCAUGUAGAAGGCUGAAUAA [Sheneh]”, for which the results for the “apparent KD of MS2 coat protein” value in data set [1] and in data set [2] were 16.9 nM and 21.5 nM, respectively.
